Laboratory results reported in publication PMC3326528.
Positions count from the first letter of the chain named. Names and notes keep the numbering of the source.

B1: T80A (Streptantibioticus cattleyicolor; T80A) (protein)
chain: AANSTRRPIIAFMSDLGTTDDSVAQCKGLMYSICPDVTVVDVCHSMTPWDVEEGARYIVDLPRFFPEGTVFATTTYPAAGTTTRSVAVRIKQAAKGGARGQWAGSGAGFERAEGSYIYIAPNNGLLTTVLEEHGYLEAYEVTSPKVIPEQPEPTFYSREMVAIPSAHLAAGFPLSEVGRPLEDHEIVRFNRPAVEQDGEALVGVVSAIDHPFGNVWTNIHRTDLEKAGIGYGARLRLTLDGVLPFEAPLTPTFADAGEIGNIAIYLNSRGYLSIARNAASLAYPYHLKEGMSARVEAR
B2: S158G (Streptantibioticus cattleyicolor; S158G) (protein)
chain: B1 chain with A79T, S157G
B3: T80S (Streptantibioticus cattleyicolor; T80S) (protein)
chain: B1 chain with A79S
B4: S158A (Streptantibioticus cattleyicolor; S158A) (protein)
chain: B1 chain with A79T, S157A

What follows are proteins tested on C[S+](CC[C@H](N)C(=O)[O-])C[C@H]1O[C@@H](n2cnc3c(N)ncnc32)[C@H](O)[C@@H]1O (assay: Discontinuous HPLC assay of 5′-FDA formation with SAM varied at 200 mM fluoride). Details: pH 7.8; 25.0 °C.
Format: biochemical
Protein B1 has a Km of 3.0 ± 0.4 µM and a kcat of 8.33e-05 ± 3.33e-06 s⁻¹.
In the case of B2, the Km is reported as 0.8 ± 0.5 µM and the kcat is reported as 1.17e-05 ± 5e-07 s⁻¹.
Protein B3 has a Km of 4.7 ± 0.4 µM and a kcat of 0.001 ± 3.33e-05 s⁻¹.
B4 showed a Km of 9.2 ± 1.2 µM and a kcat of 0.00015 ± 1e-05 s⁻¹.
